Measurements taken from US5985833A, “Thrombin inhibitor” (Wisconsin Alumni Research Foundation, priority 1996, dated 1999).
“Also recorded” adds a separate entry of the source. Where a SMILES comes first, the peptide text is derived from it. Where no end group is shown, it is not given here. [ ]: non-standard residue; d: D form. sY = N[C@@H](Cc1ccc(OS(=O)(=O)O)cc1)C(=O)O

Tests used:
thrombin [1] = molecular target: T1, thrombin (Homo sapiens, UniProt P00734); test: Peptide inhibition of 125I-PPACK-thrombin binding to peak 1 fibrin clot; conditions: for IC50 / inhibition of thrombin binding to peak 1 fibrin (in words): sulfated peptides; for IC50 for inhibition of thrombin binding to peak 1 fibrin (in words): non-sulfated γ' peptides containing 416 T→V and 420 S→A substitutions, FIG. 8
T1 construct: PPACK-thrombin was prepared by adding a five-fold molar excess of PPACK (Calbiochem, San Diego, Calif.) to α-thrombin; purchased Enzyme Research Laboratories, Inc., South Bend, Ind
Method: To determine the capacity of the peptides to inhibit thrombin binding, a 200 μl clot containing fibrin (0.5 nmoles) and ^125 I-PPACK-thrombin (0.1 nmoles) in 0.05M HEPES, 0.10M NaCl buffer, pH 7.4, and 0.01% (w/v) polyethylene glycol 8000 was formed in the presence of varying concentrations of peptide. The amount of thrombin bound to the clot was determined by counting the ^125 I radioactivity in a gamma counter. […] For most studies, peak 1 fibrin was used to assess the inhibitory capacity of the peptides. Similar qualitative thrombin-binding results were obtained using peak 2 fibrin (FIG. 6), but higher levels of peptide were needed to inhibit binding since this molecule contains the high affinity thrombin-binding site.

thrombin [2] = molecular target: T1, thrombin; test: Peptide inhibition of 125I-PPACK-thrombin binding to peak 2 fibrin clot; conditions: FIG. 6
thrombin [3] = conditions: cited from earlier work

Row | IC50 for inhibition of thrombin binding to peak 1 fibrin (in words) (thrombin [1]) | Molecule | IC50 / inhibition of thrombin binding to peak 1 fibrin (in words) (thrombin [1]; FIG. 7) | also measured
1 | no significant increases in IC50 | VRPEHPAEVEYEALYPEDDL [γ' 408-427 (416V/420A), VRPEHPAEVEYEALYPEDDL] | – | –
2 | no significant increases in IC50 | EHPAEVEYEALYPEDDL [γ' 411-427 (416V/420A), E H P A E V E Y E A L Y P E D D L] | – | –
3 | no significant increases in IC50 | PEHPAEVEYEALYPEDDL [γ' 410-427 (416V/420A)] | – | –

Continued, molecule first:

Row | Molecule | IC50 for inhibition of thrombin binding to peak 1 fibrin (in words) (thrombin [1]) | IC50 / inhibition of thrombin binding to peak 1 fibrin (in words) (thrombin [1]; FIG. 7) | also measured
4 | E H P A E T E Y E S L Y P E D D L (EHPAETEYESLYPEDDL) [sulfated γ' 411-427, doubly tyrosine-sulfated native γ' peptide] | – | Even greater inhibitory effects | IC50 / inhibition of thrombin binding to peak 1 fibrin (in words) (thrombin [1]; FIG. 7, listed as γ' 411-472): similar
5 | AVRPEHPAETEYESLYPEDDL (AVRPEHPAETEYESLYPEDDL) [sulfated γ' A408-427] | – | similar | IC50 (thrombin [2]; peak 2 fibrin, tyrosine-sulfated peptides): 14 µM; inhibitory effect on thrombin binding to peak 2 fibrin (in words) (thrombin [2]; sulfated versus non-sulfated peptide): greater inhibitory effect
6 | AEVEYEALYPEDDL [γ' 414-427 (416V/420A), A E V E Y E A L Y P E D D L] | no significant increases in IC50; also recorded: lowest IC50 | – | –
7 | CC(C)[C@H](NC(=O)[C@H](CCC(=O)O)NC(=O)[C@H](C)NC(=O)[C@@H]1CCCN1C(=O)[C@H](Cc1c[nH]cn1)NC(=O)[C@H](CCC(=O)O)NC(=O)[C@@H]1CCCN1)C(=O)N[C@@H](CCC(=O)O)C(=O)N[C@@H](Cc1ccc(OS(=O)(=O)O)cc1)C(=O)O [γ' 410-418(416V), P E H P A E V E Y] (H-PEHPAEVE[sY]-OH) | – | neither the amino-terminal γ' 410-418(416V) nor the carboxy-terminalγ' 419-427(420A) segment of this peptide had any significant inhibition of thrombin binding | –
8 | E H P A E T E F E S L Y P E D D L (EHPAETEFESLYPEDDL) [γ' 411-427/418F, tyrosine at 418 substituted with phenylalanine] | – | increase in IC50 compared with the doubly tyrosine-sulfated peptide; also recorded: lower IC50 than non-sulfated γ' A408-427 | –
9 | CC(C)C[C@H](NC(=O)[C@H](CC(=O)O)NC(=O)[C@H](CC(=O)O)NC(=O)[C@H](CCC(=O)O)NC(=O)[C@@H]1CCCN1C(=O)[C@H](Cc1ccc(OS(=O)(=O)O)cc1)NC(=O)[C@H](CC(C)C)NC(=O)[C@H](C)NC(=O)[C@@H](N)CCC(=O)O)C(=O)O [γ' 419-427(420A), E A L Y P E D D L] (H-EAL[sY]PEDDL-OH) | – | nor the carboxy-terminalγ' 419-427(420A) segment of this peptide had any significant inhibition of thrombin binding | –
10 | fibrinogen | – | – | Km (thrombin [3]; fibrinogen peptides or fibrinogen itself, read-out: Km estimated from peptide A release): 6 to 11 µM; Kd (thrombin [3]; substrate site, read-out: Kd derived from similar kinetic studies): 1.3 to 2.6 µM
